Assay results from IntAct's records for PubMed 16698797.

B1: Protein O-mannosyl-transferase 1 (Homo sapiens), Q9Y6A1 (parent)
chain: MWGFLKRPVVVTADINLSLVALTGMGLLSRLWRLTYPRAVVFDEVYYGQYISFYMKQIFFLDDSGPPFGHMVLALGGYLGGFDGNFLWNRIGAEYSSNVPVWSLRLLPALAGALSVPMAYQIVLELHFSHCAAMGAALLMLIENALITQSRLMLLESVLIFFNLLAVLSYLKFFNCQKHSPFSLSWWFWLTLTGVACSCAVGIKYMGVFTYVLVLGVAAVHAWHLLGDQTLSNVGADVQCCMRPACMGQMQMSQGVCVFCHLLARAVALLVIPVVLYLLFFYVHLILVFRSGPHDQIMSSAFQASLEGGLARITQGQPLEVAFGSQVTLRNVFGKPVPCWLHSHQDTYPMIYENGRGSSHQQQVTCYPFKDVNNWWIVKDPRRHQLVVSSPPRPVRHGDMVQLVHGMTTRSLNTHDVAAPLSPHSQEVSCYIDYNISMPAQNLWRLEIVNRGSDTDVWKTILSEVRFVHVNTSAVLKLSGAHLPDWGYRQLEIVGEKLSRGYHGSTVWNVEEHRYGASQEQRERERELHSPAQVDVSRNLSFMARFSELQWRMLALRSDDSEHKYSSSPLEWVTLDTNIAYWLHPRTSAQIHLLGNIVIWVSGSLALAIYALLSLWYLLRRRRNVHDLPQDAWLRWVLAGALCAGGWAVNYLPFFLMEKTLFLYHYLPALTFQILLLPVVLQHISDHLCRSQLQRSIFSALVVAWYSSACHVSNTLRPLTYGDKSLSPHELKALRWKDSWDILIRKH
partner: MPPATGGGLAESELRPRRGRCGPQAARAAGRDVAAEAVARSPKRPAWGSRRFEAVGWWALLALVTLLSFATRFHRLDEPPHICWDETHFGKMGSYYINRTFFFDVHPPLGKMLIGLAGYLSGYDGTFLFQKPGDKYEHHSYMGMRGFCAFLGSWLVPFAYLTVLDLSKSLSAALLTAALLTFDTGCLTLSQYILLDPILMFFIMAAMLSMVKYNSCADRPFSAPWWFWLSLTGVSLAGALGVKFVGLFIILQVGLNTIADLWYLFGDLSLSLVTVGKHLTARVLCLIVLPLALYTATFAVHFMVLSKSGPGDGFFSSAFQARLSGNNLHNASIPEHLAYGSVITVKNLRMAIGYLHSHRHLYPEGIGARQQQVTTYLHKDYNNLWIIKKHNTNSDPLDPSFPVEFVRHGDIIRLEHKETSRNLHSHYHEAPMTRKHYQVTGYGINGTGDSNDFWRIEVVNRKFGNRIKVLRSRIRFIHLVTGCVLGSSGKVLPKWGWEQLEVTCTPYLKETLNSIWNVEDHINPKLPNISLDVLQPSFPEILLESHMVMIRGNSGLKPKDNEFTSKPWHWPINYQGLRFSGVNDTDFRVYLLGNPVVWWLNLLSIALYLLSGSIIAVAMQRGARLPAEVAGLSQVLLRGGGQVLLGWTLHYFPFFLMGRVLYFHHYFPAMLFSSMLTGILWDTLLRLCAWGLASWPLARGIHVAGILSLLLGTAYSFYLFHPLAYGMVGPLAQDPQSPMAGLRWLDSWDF

Variants of: B1
Conditions: with pomt2_human POMT2, Q9UKY4

Row | effect of a mutation on the interaction | Variant
1 | with no effect | G76R
2 | with no effect | V428D
3 | with no effect | G65R
4 | with no effect | A200P
5 | with no effect | W582C
